Source: doi:10.1101/2024.01.23.576883 (bioRxiv, 2024)

What was measured:
[1] = biological target: T1, HspB6-meGFP-His6 (human), O14558; experiment: microfluidic diffusional sizing; conditions: remark: other sources report otherwise
T1 chain: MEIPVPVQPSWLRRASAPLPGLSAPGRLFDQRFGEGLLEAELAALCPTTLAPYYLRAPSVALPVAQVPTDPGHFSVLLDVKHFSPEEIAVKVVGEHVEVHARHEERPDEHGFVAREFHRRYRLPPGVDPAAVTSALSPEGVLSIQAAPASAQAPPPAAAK

[2] = biological target: the molecule itself; experiment: microfluidic diffusional sizing
[3] = biological target: T2, FUS-mscarlet3, released from MBP-FUS-mscarlet3-His6 by TEV protease (UniProt P35637 1-526); experiment: fluorescence polarisation
T2 sequence: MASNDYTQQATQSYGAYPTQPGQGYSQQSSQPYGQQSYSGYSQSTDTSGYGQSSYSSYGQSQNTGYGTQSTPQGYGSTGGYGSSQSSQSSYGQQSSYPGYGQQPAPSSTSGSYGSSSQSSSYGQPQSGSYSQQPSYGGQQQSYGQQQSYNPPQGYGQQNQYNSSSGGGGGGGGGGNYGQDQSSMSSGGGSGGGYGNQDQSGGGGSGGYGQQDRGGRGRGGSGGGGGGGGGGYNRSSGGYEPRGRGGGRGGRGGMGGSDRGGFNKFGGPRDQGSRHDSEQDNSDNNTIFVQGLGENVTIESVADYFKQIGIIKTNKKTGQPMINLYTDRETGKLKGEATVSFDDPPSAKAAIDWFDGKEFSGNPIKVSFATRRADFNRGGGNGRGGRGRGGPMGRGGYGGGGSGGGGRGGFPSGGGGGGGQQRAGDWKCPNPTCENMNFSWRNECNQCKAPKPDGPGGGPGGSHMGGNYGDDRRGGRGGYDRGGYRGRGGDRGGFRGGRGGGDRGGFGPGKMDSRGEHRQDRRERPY

B1: HspB6-meGFP-His6, O14558 1-160 (natural protein)
chain: T1 chain
stoichiometry N [1]: 2

B2: HspB5-meGFP-His6 (natural protein)
chain: MDIAIHHPWIRRPFFPFHSPSRLFDQFFGEHLLESDLFPTSTSLSPFYLRPPSFLRAPSWFDTGLSEMRLEKDRFSVNLDVKHFSPEELKVKVLGDVIEVHGKHEERQDEHGFISREFHRKYRIPADVDPLTITSSLSSDGVLTVNGPRKQVSGPERTIPITREEKPAVTAAPKK
binding result [2]: binds

B3: HspB4-meGFP-His6 (natural protein)
chain: MDVTIQHPWFKRTLGPFYPSRLFDQFFGEGLFEYDLLPFLSSTISPYYRQSLFRTVLDSGISEVRSDRDKFVIFLDVKHFSPEDLTVKVQDDFVEIHGKHNERQDDHGYISREFHRRYRLPSNVDQSALSCSLSADGMLTFCGPKIQTGLDATHAERAIPVSREEKPTSAPSS
binding result [3]: binds
